Data reported in patent US20240309102A1 (LENTIGEN TECHNOLOGY, published 2024).

T1: recombinant human CD123-Fc (human, UniProt P26951 19-305, limits assumed)
T1 construct: Panning and sorting antigen; not shown: Fc part
T1 sequence (looked up): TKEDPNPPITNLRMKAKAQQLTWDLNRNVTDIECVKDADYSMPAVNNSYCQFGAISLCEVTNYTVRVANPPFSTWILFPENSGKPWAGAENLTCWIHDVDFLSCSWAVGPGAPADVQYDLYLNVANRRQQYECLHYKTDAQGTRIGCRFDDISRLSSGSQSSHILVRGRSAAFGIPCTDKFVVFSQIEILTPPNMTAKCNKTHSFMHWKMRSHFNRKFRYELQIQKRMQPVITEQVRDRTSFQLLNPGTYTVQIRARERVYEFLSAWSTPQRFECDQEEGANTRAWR

B1: CD123 hScFv binder M12313 (scFv)
scFv: EVQLVQSGAEVKKPGSSVKVSCKASGGTFSSYAISWVRQAPGQGLEWMGGIIPIFGTANYAQKFQGRVTITADESTSTAYMELSSLRSEDTAVYYCASQKGGGWSIDAFDIWGQGTMVTVSSGGGGSGGGGSGGGGSQSVLTQPPSVSAASGQRVTISCSGSSSNIGNNYASWYQQLPGMAPKLLIYEDNKRPSGISDRFSGSQSGTSASLAITGLQAEDEADYYCQSYDSSLSGDVVFGGGTKLTVLG
B2: CD123 hScFv binder M12314 (scFv)
scFv: EVQLVQSGAEVKKPGSSVKVSCKASGGTFSSYAISWVRQAPGQGLEWMGGIIPIFGTANYAQKFQGRVTITADESTSTAYMELSSLRSEDTAVYYCARVGCSGGSCYPDYWGQGTLVTVSSGGGGSGGGGSGGGGSEIVLTQSPSSLSASVGDRVTITCQASQDISNYLNWYQQKPGKAPKLLIYDASNLETGVPSRFSGSGSGTDFTFTISSLQPEDIATYYCQQYDNLPLTFGGGTKLDIK
B3: CD123 hScFv binder M12315 (scFv)
scFv: QVQLQQWGAGLLKPSETLSLTCAVYGGSFSGYYWSWIRQPPGKGLEWIGEINHSGSTNYNPSLKSRVTISVDTSKNQFSLKLSSVTAADTAVYYCARGQVKYSSSLGYWGQGTLVTVSSGGGGSGGGGSGGGGSQSVLTQPPSVSAAPGQKVTISCSGSSSNIGNNFVSWYQQLPGTAPKLLIYEDNKRPSGIPDRFSGSRSGTSATLGITGLQTGDEADYYCGTWDSSLGAWVFGGGTKLTVLG
B4: CD123 hScFv binder M12316 (scFv)
scFv: EVQLVESGGGLVQPGGSLRLSCAASGFTFSSYAMHWVRQAPGKGLEWVSSISSSSSYIYYADSVKGRFTISRDNSKNTLYLQMNSLRAEDTAVYYCARDWDDAFDIWGQGTTVTVSSGGGGSGGGGSGGGGSDIQMTQSPSSLSASVGDRVTITCQASQDISNYLNWYQQKPGKAPKLLIYDASNLETGVPSRFSGSGSGTDFTFTISSLQPEDIATYYCQQYDNLPLTFGGGTKLEIK
B5: CD123 hScFv binder M12317 (scFv)
scFv: QVQLVETGGGLVKPGGSLRLSCAASGFTFSSYSMNWVRQAPGKGLEWVSSISSSSSYIYYADSVKGRFTISRDNAKNSLYLQMNSLRAEDTAVYYCARDGDFWSGAIDYWGQGTLVTVSSGGGGSGGGGSGGGGSDIQLTQSPSSLSASVGDRVTITCQASQDISNYLNWYQQKPGKAPKLLIYDASNLETGVPSRFSGSGSGTDFTFTISSLQPEDIATYYCQQYDNLPLFGGGTKLEIK
B6: CD123 hScFv binder M12318 (scFv)
scFv: EVQLVQSGGGVVQPGRSLRLSCAASGFTFSSYSMNWVRQAPGKGLEWVSSISSSSSYIYYADSVKGRFTISRDNAKNTLYLQMNSLRAEDTAVYYCARDNWGSLDYWGQGTLVTVSSGGGGSGGGGSGGGGSDIQMTQSPSSLSASVGDRVTITCQASQDISNYLNWYQQKPGKAPKLLIYDASNLETGVPSRFSGSGSGTDFTFTISSLQPEDIATYYCQQYDNLPHMYTFGQGTKLEIK
B7: CD123 hScFv binder M12303 (scFv)
scFv: EVQLVETGAEVKKPGASVKVSCKASGYTFTTYYVHWVRQAPGQGLEWMGIINPSGGSTSYAQKFQGRVTMTRDTSTSTVYMELSSLRSEDTAVYYCARDGGLGGYEAWGQGTLVTVSSGGGGSGGGGSGGGGSDIQLTQSPSALSASAGDRVTITCQASQDISNYLNWYQQKPGKAPKLLIYDASNLERGVPSRFSGSGSGTEFTFTISSLQPEDIATYYCQQYDNLPITFGQGTRLEIK
B8: CD123 hScFv binder M12305 (scFv)
scFv: QVQLVQSGAEVKKPGSSVKVSCKASGGTFSSYAISWVRQAPGQGLEWMGGIIPIFGTANYAQKFQGRVTITTDESTSTAYMELSSLRSEDTAVYYCARRGWGGFSSGSAFDIWGQGTMVTVSSGGGGSGGGGSGGGGSNFMLTQPHSVSESPGNTVTISCTGSSGTIGSNFVQWYQQSPGRAPTLLIYEDTKRPSGVPPRFAGSVDSSSNSASLTISGLKTEDEADYYCQSYDSSNWVFGGGTKLTVLG
B9: CD123 hScFv binder M12306 (scFv)
scFv: EVQLVQSGSELKKPGASVKVSCKASGGTFSSYAISWVRQAPGQGLEWMGGIIPIFGTANYAQKFQGRVTITADESTSTAYMELSSLRSEDTAVYYCASTARRGWDTAGPLDYWGQGTLVTVSSGGGGSGGGGSGGGGSDIQMTQSPSSLSASVGDRVTIACRASQTISRYLNWYQQKPGKAPKLLIYAASSLQSGVSSRFSGSGSGTEFTLTISSLQPEDFATYFCQQTYSPPITFGQGTRLEIK
B10: CD123 hScFv binder M12308 (scFv)
scFv: EVQLVETGAEVKNPGSSVKVSCKASGGTLSNYAISWVRQAPGKGLEWMGGIIPIFGTANYAQKFQGRVTITADESTSTAYMELSSLRSEDTAVYYCARRSSWYPEGCFQHWGQGTLVTVSSGGGGSGGGGSGGGGSDIQLTQSPSSLSASTGDRVTITCRASQGISSYLAWYQQKPGKAPKLLIYAASTLQSGVPSRFSGSGSGTDFTLTISCLQSEDFATYYCQQYYSYPLTFGGGTKLDIK
B11: CD123 hScFv binder M12309 (scFv)
scFv: EVQLVQSGAEVKKPGATVKISCKVSGYTFTDYYMHWVQQAPGKGLEWIGLVDPEDGETIYAEKFQGRVTITADTSTDTAYMELSSLRSEDTAVYYCATAPLGEVGAAVDYWGQGTLVTVSSGGGGSGGGGSGGGGSHVILTQPPSVSAAPGQEVSISCSGSDANIGTNLVSWYQHVPGTAPKLLIYENSKRPSGIPARFSSSQSGTSATLAISGLQSGDEAIYYCLTWDRTLSGKIFGGGTQLTVLG
B12: CD123 hScFv binder M12311 (scFv)
scFv: EVQLVQSGAEVKKPGSSVKVSCKASGGTFSSYAISWVRQAPGQGLEWMGGIIPIFGTANYAQKFQGRVTITADESTSTAYMELSSLRSEDTAVYYCARARLGGAFDIWGQGTMVTVSSGGGGSGGGGSGGGGSQSVLTQPPSVSAAPGQKVTISCSGGSSNIGNHYVSWYQQLPGAAPKLLIYDDNKRPSGIPDRFSGSRSGTSATLGITGLQSGDEADYYCGTWDSSLAAHVFGTGTKVTVLG

Molecular target: T1, recombinant human CD123-Fc
Test: yeast display; 3 rounds of MACS and a FACS sort (top 1%) with CD123-Fc; clone sequenced from the sorted pool, not tested singly
Description: A large yeast display human naive single chain variable fragment (ScFv) antibody library was used to isolate anti-human CD123 antibodies described herein. The library was constructed using a collection of human antibody gene repertoires from more than 60 individuals. Three rounds of magnetic-activated cell sorting (MACS) were performed to enrich human ScFv binders to the recombinant human CD123-Fc. For the first round of yeast library panning, the yeast display ScFv library (5×10¹⁰ cells) was incubated with 5 μg/mL CD123-Fc in 15 ml PBSA (consisting of 0.1% Bovine Serum Albumin (BSA) in Dulbecco's phosphate-buffered saline (PBS) buffer), at room temperature on a rotator for 1.5 hours. After two times washing with 25 ml PBSA, the yeast library mix was incubated with 100 μL Protein G microbeads (Miltenyi Biotec) at room temperature on a rotator for 30 minutes. After one time washing, the library mix was resuspended in 50 ml of PBSA and loaded onto the MACS cell separation column (LS column). After three times washing with 10 ml PBSA. […] These eluted yeast cells were combined and then resuspended into 50 ml SDCAA medium (20 g D-glucose, 6.7 g BD Difco™ Yeast Nitrogen Base without Amino Acids, 5 g Bacto™ Casamino Acids, 5.4 g Na2·HPO4, and 8.56 g NaH2PO4·H2O in 1 L water) and amplified with shaking at 225 rpm at 30° C. for 20 hours. The amplified pool was then induced in SGCAA medium (consisting of the same composition of SDCAA medium, but containing galactose instead of glucose), with shaking at 225 rpm at 30° C. for another 16 hours and used for next round of panning. The same process was repeated two more times to enrich the CD123-Fc specific binders.
To further enrich the binders with higher affinity and better specificity, FACS based sorting was employed to isolate the strongest binders from the pool. The induced pool was incubated with 1 μg/ml of CD123-Fc at room temperature for 1 hour and then stained with Anti-c-Myc-Alexa 488 and Goat anti-Hu-Fc PE conjugates, the top 1% of the pool with the highest PE versus FITC signal was gated and sorted. The sorted pool was amplified in SDCAA medium and yeast plasmid DNA was extracted and transformed into bacterial for single clone DNA sequencing. 40 random clones were sequenced and 36 unique sequences were identified.

| Binder | binding result |
| --- | --- |
| B1 | binds |
| B2 | binds |
| B3 | binds |
| B4 | binds |
| B5 | binds |
| B6 | binds |
| B7 | binds |
| B8 | binds |
| B9 | binds |
| B10 | binds |
| B11 | binds |
| B12 | binds |
